Assay results taken from patent US6403769 (US Dept. of Health and Human Services, dated 2002).

What was measured:
immunoglobulin HFc [1] = molecular target: T1, immunoglobulin HFc (mouse, UniProt P01868 98-324 = IgG part); assay: ELISA-like assay, 10 ng PDGF BB immobilized
T1 construct: domain: hinge, CH2 and CH3 domains; Control without a nonantibody portion; also called the HFc portion of IgG; control immunoglobulin HFc
Description: After a two hour incubation, wells were washed, and alkaline phosphatase substrate was added to the wells in 100 mM sodium bicarbonate (pH 9.8)-1 mM magnesium chloride. After another incubation, the presence of the product of the chromogenic substrate was measured at 405 nm using an ELISA reader.

immunoglobulin HFc [2] = molecular target: T1, immunoglobulin HFc; assay: immunohistochemistry on normal human skin
D2/3-HFc fusion protein [3] = molecular target: T2, D2/3-HFc fusion protein (mouse, UniProt P21803 22-262; P01868 98-324 = IgG part, limits assumed); assay: 50% displacement of 125I-KGF by unlabeled KGF, fusion protein captured on Gamma Bind G (Scatchard analysis)
T2 construct: domain: Ig-like effector domains D2 and D3;domain: hinge, CH2 and CH3 domains; Secreted by NIH 3T3 transfectants as a disulfide-linked dimer (80 kd reduced, 160 kd nonreduced); Cloned into HFc-pUC 18 without the heterologous signal peptide; also called KGFR-HFc (D2/3)
Description: (§1) Ey et al., Immunochem. 15: 429 (1978). […] Bovine brain aFGF was obtained from Upstate Biotechnology, Inc. (Lake Placid, N.Y.). ^125I-aFGF was prepared as described by Friesel et al., J. Biol. Chem. 261: 7581 (1986).
(§2) Bound ligand recovered from the pellets was counted in a Beckman gamma counter. Specific binding was defined as the difference between binding in the absence or presence of excess unlabeled ligand.
The dissociation constant for each fusion protein was determined by measuring the concentrations of unlabeled ligand required for 50% displacement of radiolabeled ligand.

α PDGFR = molecular target: T3, α PDGFR (UniProt P16234 24-1089, limits assumed); assay: Scatchard analysis
T3 construct: also called α PDGF receptor

β PDGFR = molecular target: T4, β PDGFR (UniProt P09619 33-1106, limits assumed); assay: Scatchard analysis
T4 construct: also called β PDGF receptor

[4] = molecular target: S. aureus protein A Sepharose CL-4B (S. aureus, UniProt P38507 37-477); assay: precipitation of 35S-labeled conditioned medium
Description: Cells were incubated in the presence of radiolabeled amino acids to examine the expression of the fusion proteins. […] The immunoprecipitated proteins were then analyzed by SDS-polyacrylamide gel electrophoresis (PAGE) and immunoprecipitated species were visualized after fluorography.
Isolated proteins were analyzed using SDS-PAGE.

D2/3-HFc fusion protein [5] = molecular target: T2, D2/3-HFc fusion protein; assay: 50% displacement of 125I-aFGF by unlabeled aFGF, fusion protein captured on Gamma Bind G (Scatchard analysis)
Description: as §1, §2

D2-HFc fusion protein = molecular target: T5, D2-HFc fusion protein (mouse, UniProt P21803 22-156; P01868 98-324 = IgG part, limits assumed); assay: as above
T5 construct: domain: Ig-like effector domain D2;domain: hinge, CH2 and CH3 domains; Disulfide-linked dimer (55 kd reduced, 110 kd nonreduced); also called KGFR-HFc (D2)
Description: as §1, §2

T3 sequence (P16234 24-1089 limits assumed): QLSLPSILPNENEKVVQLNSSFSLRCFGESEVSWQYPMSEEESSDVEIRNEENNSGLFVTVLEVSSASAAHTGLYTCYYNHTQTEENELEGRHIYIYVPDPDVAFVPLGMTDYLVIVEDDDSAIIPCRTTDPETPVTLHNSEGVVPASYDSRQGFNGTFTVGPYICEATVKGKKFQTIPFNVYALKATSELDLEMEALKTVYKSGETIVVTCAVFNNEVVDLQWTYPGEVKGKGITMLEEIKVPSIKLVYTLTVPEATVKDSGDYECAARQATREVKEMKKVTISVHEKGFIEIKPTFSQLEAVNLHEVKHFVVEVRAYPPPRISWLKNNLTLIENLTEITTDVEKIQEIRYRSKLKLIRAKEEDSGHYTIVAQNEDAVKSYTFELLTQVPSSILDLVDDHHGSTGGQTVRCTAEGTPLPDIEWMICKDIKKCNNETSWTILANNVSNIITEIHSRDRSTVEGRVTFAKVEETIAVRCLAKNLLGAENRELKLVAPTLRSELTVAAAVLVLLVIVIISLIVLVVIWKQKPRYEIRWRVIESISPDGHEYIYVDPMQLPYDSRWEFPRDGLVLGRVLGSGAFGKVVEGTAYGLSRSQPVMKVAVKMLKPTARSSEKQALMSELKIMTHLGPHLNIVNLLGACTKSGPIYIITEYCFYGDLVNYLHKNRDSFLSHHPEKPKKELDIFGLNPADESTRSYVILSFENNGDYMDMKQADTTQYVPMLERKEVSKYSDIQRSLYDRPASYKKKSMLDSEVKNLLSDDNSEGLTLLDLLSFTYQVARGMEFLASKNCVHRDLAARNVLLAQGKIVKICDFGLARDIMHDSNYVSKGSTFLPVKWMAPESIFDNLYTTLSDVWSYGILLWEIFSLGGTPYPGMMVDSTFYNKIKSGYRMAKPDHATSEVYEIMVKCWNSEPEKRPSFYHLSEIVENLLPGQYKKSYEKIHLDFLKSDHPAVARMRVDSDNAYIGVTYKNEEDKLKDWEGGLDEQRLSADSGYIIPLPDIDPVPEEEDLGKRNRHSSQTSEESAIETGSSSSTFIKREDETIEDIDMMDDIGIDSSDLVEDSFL
T4 sequence (P09619 33-1106 limits assumed): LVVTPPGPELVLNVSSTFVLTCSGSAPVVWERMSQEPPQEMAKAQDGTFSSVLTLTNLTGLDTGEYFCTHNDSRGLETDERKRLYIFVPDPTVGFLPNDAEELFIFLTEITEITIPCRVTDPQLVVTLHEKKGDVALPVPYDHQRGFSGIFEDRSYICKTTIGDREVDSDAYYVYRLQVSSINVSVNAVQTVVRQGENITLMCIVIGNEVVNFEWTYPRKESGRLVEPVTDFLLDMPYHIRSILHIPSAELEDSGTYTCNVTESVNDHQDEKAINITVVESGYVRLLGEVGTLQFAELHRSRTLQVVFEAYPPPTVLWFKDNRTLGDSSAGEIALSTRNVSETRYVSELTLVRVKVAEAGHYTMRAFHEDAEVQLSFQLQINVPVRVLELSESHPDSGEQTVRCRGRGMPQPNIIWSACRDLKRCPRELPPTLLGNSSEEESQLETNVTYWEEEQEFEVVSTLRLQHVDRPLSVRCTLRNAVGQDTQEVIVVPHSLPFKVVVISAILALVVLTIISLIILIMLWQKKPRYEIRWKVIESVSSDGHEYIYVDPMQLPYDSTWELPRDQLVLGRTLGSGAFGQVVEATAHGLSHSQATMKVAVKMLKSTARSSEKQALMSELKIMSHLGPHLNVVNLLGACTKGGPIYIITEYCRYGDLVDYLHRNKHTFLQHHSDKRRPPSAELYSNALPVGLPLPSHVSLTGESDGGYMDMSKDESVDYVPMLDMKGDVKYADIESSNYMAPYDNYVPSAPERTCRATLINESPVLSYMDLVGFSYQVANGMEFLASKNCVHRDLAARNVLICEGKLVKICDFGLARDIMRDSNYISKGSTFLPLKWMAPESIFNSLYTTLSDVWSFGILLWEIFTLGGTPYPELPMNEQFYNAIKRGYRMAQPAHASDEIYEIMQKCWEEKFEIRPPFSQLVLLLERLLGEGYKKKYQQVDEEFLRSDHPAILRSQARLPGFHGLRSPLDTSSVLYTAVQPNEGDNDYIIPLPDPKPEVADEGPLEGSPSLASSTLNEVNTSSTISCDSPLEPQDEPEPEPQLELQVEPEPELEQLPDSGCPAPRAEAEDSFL

B1: PDGF BB (ligand, UniProt P01127 82-190, looked up)
chain: SLGSLTIAEPAMIAECKTRTEVFEISRRLIDRTNANFLVWPPCVEVQRCSGCCNNRNVQCRPTQVQLRPVQVRKIEIVRKKPIFKKATVTLEDHLACKCETVAAARPVT
notes: also called PDGF BB protein
binding result (immunoglobulin HFc [1]): no binding

B2: keratinocyte growth factor (KGF) (ligand, human, UniProt P21781 32-194, looked up)
chain: CNDMTPEQMATNVNCSSPERHTRSYDYMEGGDIRVRRLFCRTQWYLRIDKRGKVKGTQEMKNNYNIMEIRTVAVGIVAIKGVESEFYLAMNKEGKLYAKKECNEDCNFKELILENHYNTYASAKWTHNGGEMFVALNQKGIPVRGKKTKKEQKTAHFLPMAIT
notes: also called recombinant human KGF; recombinant KGF
binding result (immunoglobulin HFc [2]): no binding
Kd (D2/3-HFc fusion protein [3]): 0.12 nM

B3: PDGF A-HFc fusion protein (Fc fusion)
chain: not shown
notes: Expressed as an 84-89 kd dimeric protein
Kd (α PDGFR): 1.3 nM
binding result (β PDGFR): no binding

B4: PDGF B-HFc fusion protein (Fc fusion, UniProt P01127 82-190, looked up)
chain: SLGSLTIAEPAMIAECKTRTEVFEISRRLIDRTNANFLVWPPCVEVQRCSGCCNNRNVQCRPTQVQLRPVQVRKIEIVRKKPIFKKATVTLEDHLACKCETVAAARPVTVPRDCGCKPCICTVPEVSSVFIFPPKPKDVLTITLTPKVTCVVVDISKDDPEVQFSWFVDDVEVHTAQTQPREEQFNSTFRSVSELPIMHQDWLNGKEFKCRVNSAAFPAPIEKTISKTKGRPKAPQVYTIPPPKEQMAKDKVSLTCMITDFFPEDITVEWQWNGQPAENYKNTQPIMNTNGSYFVYSKLNVQKSNWEAGNTFTCSVLHEGLHNHHTEKSLSHSPGK
notes: Expressed as an 84 kd dimeric protein
Kd (α PDGFR): 3.2 nM
Kd (β PDGFR): 1.4 nM

B5: KGF-HFc fusion protein (Fc fusion, UniProt P21781 32-194, looked up)
chain: CNDMTPEQMATNVNCSSPERHTRSYDYMEGGDIRVRRLFCRTQWYLRIDKRGKVKGTQEMKNNYNIMEIRTVAVGIVAIKGVESEFYLAMNKEGKLYAKKECNEDCNFKELILENHYNTYASAKWTHNGGEMFVALNQKGIPVRGKKTKKEQKTAHFLPMAITVPRDCGCKPCICTVPEVSSVFIFPPKPKDVLTITLTPKVTCVVVDISKDDPEVQFSWFVDDVEVHTAQTQPREEQFNSTFRSVSELPIMHQDWLNGKEFKCRVNSAAFPAPIEKTISKTKGRPKAPQVYTIPPPKEQMAKDKVSLTCMITDFFPEDITVEWQWNGQPAENYKNTQPIMNTNGSYFVYSKLNVQKSNWEAGNTFTCSVLHEGLHNHHTEKSLSHSPGK
notes: Disulfide-linked dimer, p94-98 nonreduced, 48 kd reduced
binding result [4]: binds

B6: bovine brain aFGF (ligand, UniProt P03968 16-155, looked up)
chain: FNLPLGNYKKPKLLYCSNGGYFLRILPDGTVDGTKDRSDQHIQLQLCAESIGEVYIKSTETGQFLAMDTDGLLYGSQTPNEECLFLERLEENHYNTYISKKHAEKHWFVGLKKNGRSKLGPRTHFGQKAILFLPLPVSSD
notes: also called radioiodinated bovine fibroblast growth factor (aFGF); 125I-aFGF
Kd (D2/3-HFc fusion protein [5]): 0.52 nM
Kd (D2-HFc fusion protein): 0.96 nM
